Consider six molecules from PMC6477676, “Staufen2-mediated RNA recognition and localization requires combinatorial action of multiple domains”.

Series [1] concerns the target T1, mStau2 dsRBD3-4 (Mus musculus, UniProt Q8CJ67 207-375).
T1 sequence: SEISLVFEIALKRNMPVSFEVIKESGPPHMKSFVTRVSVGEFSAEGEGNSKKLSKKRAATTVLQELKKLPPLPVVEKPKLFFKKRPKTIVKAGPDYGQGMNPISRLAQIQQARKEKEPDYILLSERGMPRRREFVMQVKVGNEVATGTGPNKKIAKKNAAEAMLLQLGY
The series is described as follows: EMSA; Kd micromolar; SPR: HBS-EP (10 mM HEPES pH 7.4, 150 mM NaCl, 3 mM EDTA, 0.005% P20); EMSA: 5 nM RNA, protein buffer (40 mM Bis-Tris pH 7, 150 mM NaCl, 2 mM DTT presumed), 4% glycerol, 30 ug/mL yeast tRNA, RT; NMR: 150 mM NaCl, 20 mM Na phosphate pH 7.0, 5 mM DTT, 298 K. The settings on record: protein: recombinant; tags: HisSUMO removed; label: 5' 32P; hairpin, 3' ss extension. A general note: A gel shift assay detects complexes by their altered migration in electrophoresis.

Series [2] deals with T2, mStau2 dsRBD1-2 (Mus musculus, UniProt Q8CJ67 8-181).
T2 sequence: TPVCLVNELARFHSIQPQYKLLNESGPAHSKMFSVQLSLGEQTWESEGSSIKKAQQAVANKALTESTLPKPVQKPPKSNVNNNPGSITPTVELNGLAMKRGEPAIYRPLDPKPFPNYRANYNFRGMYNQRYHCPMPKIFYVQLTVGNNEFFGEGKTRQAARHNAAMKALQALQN
The series is described as above. The note with it: protein: recombinant; tags: HisSUMO removed; label: 5' 32P; hairpin, 3' ss extension.

Series [3] concerns the target T1, mStau2 dsRBD3-4. Kind of series: EMSA; almost abolished; no complex observed; SPR: HBS-EP (10 mM HEPES pH 7.4, 150 mM NaCl, 3 mM EDTA, 0.005% P20); EMSA: 5 nM RNA, protein buffer (40 mM Bis-Tris pH 7, 150 mM NaCl, 2 mM DTT presumed), 4% glycerol, 30 ug/mL yeast tRNA, RT; NMR: 150 mM NaCl, 20 mM Na phosphate pH 7.0, 5 mM DTT, 298 K. The settings on record: protein: recombinant; tags: HisSUMO removed; label: 5' 32P; hairpin, 3' ss extension.

In series [4] the target is T2, mStau2 dsRBD1-2. The series is described as above. The settings on record: protein: recombinant; tags: HisSUMO removed; label: 5' 32P; hairpin, 3' ss extension.
Series [5] has as its target T3, mStau2 full-length (Mus musculus, UniProt Q8CJ67 1-570).
T3 sequence: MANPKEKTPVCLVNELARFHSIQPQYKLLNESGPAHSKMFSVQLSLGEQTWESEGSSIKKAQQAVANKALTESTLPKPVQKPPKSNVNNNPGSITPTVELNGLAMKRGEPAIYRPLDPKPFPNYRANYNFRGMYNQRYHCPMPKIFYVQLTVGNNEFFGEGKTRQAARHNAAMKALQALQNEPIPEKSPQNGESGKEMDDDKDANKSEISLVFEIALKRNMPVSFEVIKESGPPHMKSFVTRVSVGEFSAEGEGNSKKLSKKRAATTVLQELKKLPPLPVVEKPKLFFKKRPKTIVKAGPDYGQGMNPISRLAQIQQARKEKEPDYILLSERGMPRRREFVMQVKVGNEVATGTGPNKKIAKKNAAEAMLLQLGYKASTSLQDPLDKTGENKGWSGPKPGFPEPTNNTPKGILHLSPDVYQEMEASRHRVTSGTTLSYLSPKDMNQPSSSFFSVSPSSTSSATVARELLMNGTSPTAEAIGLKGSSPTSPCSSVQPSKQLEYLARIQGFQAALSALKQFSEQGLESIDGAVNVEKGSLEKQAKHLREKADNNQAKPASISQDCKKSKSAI
Kind of series: EMSA; Kd low micromolar; SPR: HBS-EP (10 mM HEPES pH 7.4, 150 mM NaCl, 3 mM EDTA, 0.005% P20); EMSA: 5 nM RNA, protein buffer (40 mM Bis-Tris pH 7, 150 mM NaCl, 2 mM DTT presumed), 4% glycerol, 30 ug/mL yeast tRNA, RT; NMR: 150 mM NaCl, 20 mM Na phosphate pH 7.0, 5 mM DTT, 298 K. The note with it: protein: recombinant; tags: HisSUMO; label: 5' 32P; hairpin.

For series [6], the target named is T1, mStau2 dsRBD3-4. The series is described as follows: EMSA; SPR: HBS-EP (10 mM HEPES pH 7.4, 150 mM NaCl, 3 mM EDTA, 0.005% P20); EMSA: 5 nM RNA, protein buffer (40 mM Bis-Tris pH 7, 150 mM NaCl, 2 mM DTT presumed), 4% glycerol, 30 ug/mL yeast tRNA, RT; NMR: 150 mM NaCl, 20 mM Na phosphate pH 7.0, 5 mM DTT, 298 K. The note with it: protein: recombinant; tags: HisSUMO removed; label: 5' 32P; hairpin.

Series [7] deals with T4, mStau2 dsRBD3 (Mus musculus, UniProt Q8CJ67 207-274).
T4 sequence: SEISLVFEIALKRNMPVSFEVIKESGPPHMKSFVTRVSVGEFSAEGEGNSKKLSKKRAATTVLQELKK
The series is described as follows: EMSA; up to 5 uM; SPR: HBS-EP (10 mM HEPES pH 7.4, 150 mM NaCl, 3 mM EDTA, 0.005% P20); EMSA: 5 nM RNA, protein buffer (40 mM Bis-Tris pH 7, 150 mM NaCl, 2 mM DTT presumed), 4% glycerol, 30 ug/mL yeast tRNA, RT; NMR: 150 mM NaCl, 20 mM Na phosphate pH 7.0, 5 mM DTT, 298 K. The settings on record: protein: recombinant; label: 5' 32P; hairpin.

Series [8] has as its target T2, mStau2 dsRBD1-2. The series is described as follows: EMSA; comparable with dsRBD3-4; SPR: HBS-EP (10 mM HEPES pH 7.4, 150 mM NaCl, 3 mM EDTA, 0.005% P20); EMSA: 5 nM RNA, protein buffer (40 mM Bis-Tris pH 7, 150 mM NaCl, 2 mM DTT presumed), 4% glycerol, 30 ug/mL yeast tRNA, RT; NMR: 150 mM NaCl, 20 mM Na phosphate pH 7.0, 5 mM DTT, 298 K. The note with it: protein: recombinant; tags: HisSUMO removed; label: 5' 32P; hairpin.

Series [9] concerns the target T5, mStau2 dsRBD4 (Mus musculus, UniProt Q8CJ67 307-375).
T5 sequence: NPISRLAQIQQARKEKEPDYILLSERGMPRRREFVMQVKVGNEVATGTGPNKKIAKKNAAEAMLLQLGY
Kind of series: EMSA; binds at micromolar concentrations; SPR: HBS-EP (10 mM HEPES pH 7.4, 150 mM NaCl, 3 mM EDTA, 0.005% P20); EMSA: 5 nM RNA, protein buffer (40 mM Bis-Tris pH 7, 150 mM NaCl, 2 mM DTT presumed), 4% glycerol, 30 ug/mL yeast tRNA, RT; NMR: 150 mM NaCl, 20 mM Na phosphate pH 7.0, 5 mM DTT, 298 K. The settings on record: protein: recombinant; label: 5' 32P; hairpin.

B1: 10 bp SRS2 stem-loop (9bpSRS2+5) (structured_RNA)
RNA: GGACAUGCACAAUUUGUGUGUAUGUAUAUA
For B1, the binding result in [1] and in [2] was “binds” in each case.

B2: 7 bp SRS2 stem-loop (6bpSRS2+5) (structured_RNA)
RNA: GGACAUGCAUUUGGUAUGUAUAUA
Take B2: the binding result in series [3] and in [4] was “no binding” in each case.

B3: Rgs4 SRS1 (structured_RNA)
RNA: GGGUUCCGUCAAGCCACUGGGUCUUGAUGGAGC
As to B3, the binding result in series [5] is recorded as “binds”.

B4: Rgs4 SRS2 (EMSA transcript) (structured_RNA)
RNA: GGGACAUGCACAUGCAAUUUGUGUAUGUGUAUGU
Take B4: the binding result in series [6] was “binds”; in [7], “no binding”; in series [5], “binds”; in series [8], “binds”; in [9], “binds”.

B5: 12 bp SRS2 stem-loop (11bpSRS2+5) (structured_RNA)
RNA: GGACAUGCACAUGAUUUGUAUGUGUAUGUAUAUA
On to B5, for which the binding result in series [1] and in series [2] was “binds” each time.

B6: 8 bp SRS2 stem-loop (7bpSRS2+5) (structured_RNA)
RNA: GGACAUGCAAUUUGUGUAUGUAUAUA
On to B6, for which the binding result in series [1] and in series [2] was “binds” in each case.
